# Results: paper PMC6234985 (Cell, 2018)
# Read-outs that look alike come from different tables or passages of the source.
# B1: MBP-FUS(NES) chimera (PY-NLS replaced with the NES from the NS2 protein of MVM virus) (other)
# chain: MASNDYTQQATQSYGAYPTQPGQGYSQQSSQPYGQQSYSGYSQSTDTSGYGQSSYSSYGQSQNTGYGTQSTPQGYGSTGGYGSSQSSQSSYGQQSSYPGYGQQPAPSSTSGSYGSSSQSSSYGQPQSGSYSQQPSYGGQQQSYGQQQSYNPPQGYGQQNQYNSSSGGGGGGGGGGNYGQDQSSMSSGGGSGGGYGNQDQSGGGGSGGYGQQDRGGRGRGGSGGGGGGGGGGYNRSSGGYEPRGRGGGRGGRGGMGGSDRGGFNKFGGPRDQGSRHDSEQDNSDNNTIFVQGLGENVTIESVADYFKQIGIIKTNKKTGQPMINLYTDRETGKLKGEATVSFDDPPSAKAAIDWFDGKEFSGNPIKVSFATRRADFNRGGGNGRGGRGRGGPMGRGGYGGGGSGGGGRGGFPSGGGGGGGQQRAGDWKCPNPTCENMNFSWRNECNQCKAPKPDGPGGGPGGSHMGGNYGDDRRGGRGGYDRGGYRGRGGDRGGFRGGRGGYSTVDEMTKKFGTLTIH
# B2: Kapβ2Δloop (residues 337–367 replaced with a GGSGGSG linker) (natural protein, human)
# chain: MEYEWKPDEQGLQQILQLLKESQSPDTTIQRTVQQKLEQLNQYPDFNNYLIFVLTKLKSEDEPTRSLSGLILKNNVKAHFQNFPNGVTDFIKSECLNNIGDSSPLIRATVGILITTIASKGELQNWPDLLPKLCSLLDSEDYNTCEGAFGALQKICEDSAEILDSDVLDRPLNIMIPKFLQFFKHSSPKIRSHAVACVNQFIISRTQALMLHIDSFIENLFALAGDEEPEVRKNVCRALVMLLEVRMDRLLPHMHNIVEYMLQRTQDQDENVALEACEFWLTLAEQPICKDVLVRHLPKLIPVLVNGMKYSDIDIILLKGDVEEDETIPDSEQDIRGGSGGSGDTISDWNLRKCSAAALDVLANVYRDELLPHILPLLKELLFHHEWVVKESGILVLGAIAEGCMQGMIPYLPELIPHLIQCLSDKKALVRSITCWTLSRYAHWVVSQPPDTYLKPLMTELLKRILDSNKRVQEAACSAFATLEEEACTELVPYLAYILDTLVFAFSKYQHKNLLILYDAIGTLADSVGHHLNKPEYIQMLMPPLIQKWNMLKDEDKDLFPLLECLSSVATALQSGFLPYCEPVYQRCVNLVQKTLAQAMLNNAQPDQYEAPDKDFMIVALDLLSGLAEGLGGNIEQLVARSNILTLMYQCMQDKMPEVRQSSFALLGDLTKACFQHVKPCIADFMPILGTNLNPEFISVCNNATWAIGEISIQMGIEMQPYIPMVLHQLVEIINRPNTPKTLLENTAITIGRLGYVCPQEVAPMLQQFIRPWCTSLRNIRDNEEKDSAFRGICTMISVNPSGVIQDFIFFCDAVASWINPKDDLRDMFCKILHGFKNQVGDENWRRFSDQFPLPLKERLAAFYGV
# B3: MBP-FUS(453–526) (domain or fragment, UniProt P35637 453-526, looked up)
# chain: DGPGGGPGGSHMGGNYGDDRRGGRGGYDRGGYRGRGGDRGGFRGGRGGGDRGGFGPGKMDSRGEHRQDRRERPY
# B4: MBP-FUS(371–526) (domain or fragment, UniProt P35637 371-526, looked up)
# chain: RRADFNRGGGNGRGGRGRGGPMGRGGYGGGGSGGGGRGGFPSGGGGGGGQQRAGDWKCPNPTCENMNFSWRNECNQCKAPKPDGPGGGPGGSHMGGNYGDDRRGGRGGYDRGGYRGRGGDRGGFRGGRGGGDRGGFGPGKMDSRGEHRQDRRERPY
# Columns and labels:
# GST-CRM1 = GST-CRM1 (human, UniProt O14980 1-1071); test: pull-down
# FUS(456–526) = target: T1, FUS(456–526) (UniProt P35637 456-526); test: crystal structure
# T1 sequence (looked up): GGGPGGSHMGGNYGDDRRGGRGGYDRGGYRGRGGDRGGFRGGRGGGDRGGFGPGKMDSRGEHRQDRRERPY
# [1] = target: T2, FUS (full-length), MBP removed with Tev protease (UniProt P35637 1-526); test: crystal structure
# T2 sequence (looked up): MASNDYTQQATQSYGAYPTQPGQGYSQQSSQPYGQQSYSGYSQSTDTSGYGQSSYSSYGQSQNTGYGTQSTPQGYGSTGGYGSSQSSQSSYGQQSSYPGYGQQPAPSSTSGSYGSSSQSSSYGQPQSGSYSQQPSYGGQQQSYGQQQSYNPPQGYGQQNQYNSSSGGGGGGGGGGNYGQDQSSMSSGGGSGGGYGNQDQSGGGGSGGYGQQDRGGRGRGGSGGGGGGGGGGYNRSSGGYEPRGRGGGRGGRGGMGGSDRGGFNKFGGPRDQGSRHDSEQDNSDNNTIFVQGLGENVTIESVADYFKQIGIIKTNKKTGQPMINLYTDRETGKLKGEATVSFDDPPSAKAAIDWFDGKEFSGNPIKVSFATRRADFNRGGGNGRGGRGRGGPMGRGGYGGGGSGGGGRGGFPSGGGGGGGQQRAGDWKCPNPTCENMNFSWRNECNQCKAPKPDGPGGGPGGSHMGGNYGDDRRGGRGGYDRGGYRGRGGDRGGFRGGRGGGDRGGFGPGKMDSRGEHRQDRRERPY
# FUS(371–526) = target: T3, FUS(371–526) (UniProt P35637 371-526); test: crystal structure
# T3 sequence (looked up): B4 chain
# Karyopherin-β2 (Kapβ2) = target: T4, Karyopherin-β2 (Kapβ2) (human, UniProt Q92973-2 1-890); test: ITC
# T4 sequence: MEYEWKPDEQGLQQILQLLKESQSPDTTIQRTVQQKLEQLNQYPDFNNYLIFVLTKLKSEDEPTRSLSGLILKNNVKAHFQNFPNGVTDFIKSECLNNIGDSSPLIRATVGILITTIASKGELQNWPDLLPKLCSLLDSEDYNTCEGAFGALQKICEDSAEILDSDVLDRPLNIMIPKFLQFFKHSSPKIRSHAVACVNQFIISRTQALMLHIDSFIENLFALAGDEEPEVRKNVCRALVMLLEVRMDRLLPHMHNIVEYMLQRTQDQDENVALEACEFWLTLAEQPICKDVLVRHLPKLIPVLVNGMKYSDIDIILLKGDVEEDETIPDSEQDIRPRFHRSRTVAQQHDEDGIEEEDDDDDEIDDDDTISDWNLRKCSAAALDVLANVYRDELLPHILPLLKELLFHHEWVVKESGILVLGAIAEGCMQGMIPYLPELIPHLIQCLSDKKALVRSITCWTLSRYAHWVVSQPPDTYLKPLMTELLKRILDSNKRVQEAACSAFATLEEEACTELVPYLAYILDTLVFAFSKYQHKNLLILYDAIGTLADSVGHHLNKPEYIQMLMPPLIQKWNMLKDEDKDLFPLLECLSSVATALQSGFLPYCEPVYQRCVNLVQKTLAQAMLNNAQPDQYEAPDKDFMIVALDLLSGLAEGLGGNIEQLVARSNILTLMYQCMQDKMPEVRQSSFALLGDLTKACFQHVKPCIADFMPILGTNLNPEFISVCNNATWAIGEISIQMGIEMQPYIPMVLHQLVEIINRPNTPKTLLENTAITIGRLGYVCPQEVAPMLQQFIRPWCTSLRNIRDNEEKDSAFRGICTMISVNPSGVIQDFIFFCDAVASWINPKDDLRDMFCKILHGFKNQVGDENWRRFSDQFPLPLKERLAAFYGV
# MBP-FUS [2] = target: T5, MBP-FUS (UniProt P35637 1-526); test: gel filtration co-elution
# MBP-FUS [3] = target: T5, MBP-FUS; test: gel filtration co-elution; remark: listed apart in the source
# Sequence of GST-CRM1 (O14980 whole entry): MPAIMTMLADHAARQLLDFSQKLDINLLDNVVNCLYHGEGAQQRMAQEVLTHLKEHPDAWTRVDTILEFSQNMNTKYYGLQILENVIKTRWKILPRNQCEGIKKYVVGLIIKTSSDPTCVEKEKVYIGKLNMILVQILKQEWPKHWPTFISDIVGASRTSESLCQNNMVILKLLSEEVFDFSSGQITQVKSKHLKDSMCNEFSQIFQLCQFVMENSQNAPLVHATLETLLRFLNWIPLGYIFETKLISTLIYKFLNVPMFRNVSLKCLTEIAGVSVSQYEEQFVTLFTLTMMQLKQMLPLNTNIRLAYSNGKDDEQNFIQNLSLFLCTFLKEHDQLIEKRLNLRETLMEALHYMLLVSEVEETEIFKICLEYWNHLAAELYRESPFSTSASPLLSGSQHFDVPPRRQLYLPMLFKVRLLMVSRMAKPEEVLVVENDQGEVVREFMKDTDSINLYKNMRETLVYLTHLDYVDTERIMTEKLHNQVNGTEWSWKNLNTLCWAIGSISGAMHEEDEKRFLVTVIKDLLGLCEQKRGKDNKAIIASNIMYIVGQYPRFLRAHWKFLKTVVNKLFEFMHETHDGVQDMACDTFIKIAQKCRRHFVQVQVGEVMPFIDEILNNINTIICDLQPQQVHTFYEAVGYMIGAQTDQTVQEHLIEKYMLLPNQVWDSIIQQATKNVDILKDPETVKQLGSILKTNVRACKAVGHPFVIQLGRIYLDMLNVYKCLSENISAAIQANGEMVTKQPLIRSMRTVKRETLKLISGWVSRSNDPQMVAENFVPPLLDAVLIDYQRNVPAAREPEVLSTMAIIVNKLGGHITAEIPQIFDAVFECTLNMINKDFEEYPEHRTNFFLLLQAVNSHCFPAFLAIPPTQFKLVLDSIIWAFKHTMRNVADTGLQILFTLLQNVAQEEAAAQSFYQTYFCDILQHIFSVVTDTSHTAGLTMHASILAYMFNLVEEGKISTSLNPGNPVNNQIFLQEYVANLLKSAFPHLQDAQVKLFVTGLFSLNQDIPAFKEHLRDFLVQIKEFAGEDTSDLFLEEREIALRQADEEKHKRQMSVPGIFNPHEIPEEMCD
binder,measurement,setting,value
B1,binding result,GST-CRM1,binds
B2,binding result,FUS(456–526),binds
same,binding result,[1],binds
same,binding result,FUS(371–526),binds
B3,binding result,Karyopherin-β2 (Kapβ2),binds
B4,binding result,Karyopherin-β2 (Kapβ2),binds
AUUGAGGAGCAGCAGAGAAGUUGGAGUGAAGGCAGAGAGGGGUUAAGG (ssRNA) [prD (DNMT) RNA],binding result,MBP-FUS [2],binds
UUAGGGUUAGGGUUAGGGUUAGGG (structured_RNA) [TERRA RNA],binding result,MBP-FUS [3],binds
